Target: PDGFR-alpha on human osteosarcoma MG-63 cells (human, UniProt P16234 24-1089)
Assay: cell-based or functional assay

Chain of PDGFR-alpha on human osteosarcoma MG-63 cells (P16234 24-1089): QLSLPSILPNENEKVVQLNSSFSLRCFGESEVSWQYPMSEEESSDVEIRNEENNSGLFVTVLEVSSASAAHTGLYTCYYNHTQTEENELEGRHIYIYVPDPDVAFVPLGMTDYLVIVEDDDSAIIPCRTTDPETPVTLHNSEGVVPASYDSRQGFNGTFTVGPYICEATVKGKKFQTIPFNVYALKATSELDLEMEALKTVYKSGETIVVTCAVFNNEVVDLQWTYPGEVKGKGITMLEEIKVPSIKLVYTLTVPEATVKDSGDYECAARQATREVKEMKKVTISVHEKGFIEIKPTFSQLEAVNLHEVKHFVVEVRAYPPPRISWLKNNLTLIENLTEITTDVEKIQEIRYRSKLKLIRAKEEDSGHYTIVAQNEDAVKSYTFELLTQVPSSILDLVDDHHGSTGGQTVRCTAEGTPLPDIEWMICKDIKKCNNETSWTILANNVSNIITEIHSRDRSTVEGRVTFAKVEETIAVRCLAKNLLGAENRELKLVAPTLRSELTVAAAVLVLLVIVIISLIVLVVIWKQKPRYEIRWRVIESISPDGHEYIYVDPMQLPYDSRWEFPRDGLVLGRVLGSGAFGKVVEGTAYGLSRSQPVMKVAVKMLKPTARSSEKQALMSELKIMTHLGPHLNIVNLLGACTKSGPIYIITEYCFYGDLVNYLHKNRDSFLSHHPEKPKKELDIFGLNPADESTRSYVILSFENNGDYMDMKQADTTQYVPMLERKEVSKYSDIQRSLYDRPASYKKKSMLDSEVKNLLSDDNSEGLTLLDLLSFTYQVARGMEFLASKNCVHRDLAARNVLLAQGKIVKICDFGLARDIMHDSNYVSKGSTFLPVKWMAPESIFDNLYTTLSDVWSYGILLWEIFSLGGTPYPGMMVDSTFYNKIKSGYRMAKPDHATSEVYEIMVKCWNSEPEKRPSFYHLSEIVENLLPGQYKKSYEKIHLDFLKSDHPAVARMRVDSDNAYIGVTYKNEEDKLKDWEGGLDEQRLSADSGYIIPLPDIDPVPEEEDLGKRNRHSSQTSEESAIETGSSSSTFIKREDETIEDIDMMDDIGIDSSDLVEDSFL

| Binder | Proliferation Assay: IC50 ng/ml (1-6-06) | pTyr Assay: % Inhibition @ 2 µg/ml |
| --- | --- | --- |
| 3.23.2 (antibody, V domains shown) VH: EVQLVESGGGLVQPGGSLRLSCAASGFTFSNFWMSWVRQAPGKGLEWVANIKHGGSEKYYVDSVKGRFTISRDNAKNSLYLQMNRLRAEDTAVYYCARDPMYYFDYWGQGTLVTVSS VL: DIQMTQSPSSLSASVGDRVTITCRASQDIRNDLDWYQQKPGKAPKRLIYAASSLQSGVPSRFSGSGSGTEFTLTISSLQPEDFATYYCLQHNGYPRSFGQGTKLEIK | 150 ng/mL | 26% |
| 2.1954.2 (antibody, V domains shown) VH: QVQLVESGGGVVQPGRSLRLSCAASGFSFSIYGMHWVRQAPGKGLEWVAVIWFDGSNKYYADSVKGRFTISRDNSKNTLYLQMNSLRAEDTALYYCARDKASYYGSGMDYWGQGTLVTVSS VL: EIVLTQSPGTLSLSPGERATLSCRASQSVSSTYLAWYQHRPGQAPRLLISGASRRATGIPDRFSGSGSGTDFTLTISRLEPEDFAVYYCQHYGSSFTWTFGQGTKVEIK | – | -3% |
| 2.2002.3 (antibody, V domains shown) VH: QVQLVESGGGVVQPGRSLRVSCAASGFMFRSYGMHWVRQAPGKGLEWVAVIWHDGSNKNHGDSVKGRFTISRDNSKNTLYLQMNSLRAEDTAVYYCARGRLAGGGPYYYYYYGMDVWGQGTTVTVSS VL: not shown | – | -9% |
| 3.23.3 (antibody, V domains shown) VH: QVQLVESGGGVVQPGRSLRLSCAASGFTFSRYGMHWVRQAPGKGLEWVAVIWYDGRNKYYVDSVKGRFTISRDNSKNTLYLQMNSLRAEDTAVYYCVGVGITVTGAFDYWGQGTLVTVSS VL: EIVMTQSPATLSVSPGERATLSCRASQSVRSNLAWYQQKPGQAPRLLIYGASTRVTDIPTRFSGSGSGTEFTLSISSLQSEDFAVYYCQQYNNWPRTFGQGTKVEIK | 61.9 ng/mL | 84% |
| 3.457.3.1 (antibody, V domains shown) VH: QVQLVESGGGVVQPGRSLRLSCAASGFTFSSYGMHWVRQAPGKGLEWVAVIWYDRSNKYYADSVKGRFTISRDNSKNTLYLQMNSLRAEDTAVYYCAGGRSRGAFDFWGQGTLVTVSS VL: DIQMTQSPSSVSASVGDRVTITCRASQGISSWLAWYQQKAGKAPKLLIYSASSLQSGVPSRFSGSGSGTDFTLTISSLQPEDFATYYCQRTNSFPRTFGQGTKVEIK | – | 85% |
| 3.472.1.1 (antibody, V domains shown) VH: QVQLVESGGGVVQPGRSLRLSCAASGFTFSSYGMHWVRQAPGKGLEWVAVIWYDRSNKYYVDSVKGRFTISRDNSKNTLYLQMNSLRAEDTAVYYCAGGRSRGAFDYWGQGTLVTVSS VL: DIQMTQSPSSVSASVGDRVTITCRASQDISSWLAWYQQKPGKAPKLLIFAASSLQSGVPSRFSGSGSGTDFTLTISSLQPEDFATYYCQRTSSFPRTFGQGTKVEIK | – | 61% |
| 3.772.2 (antibody, V domains shown) VH: QVQLVESGGGVVQPGRSLRLSCAASGFTFSSYGMHWVRQAPGKGLEWVAVIWYDRSNKYYADSVKGRFTISRDNSKNTLYLQMNSLRAEDTAVYYCAGGRSRGAFDFWGQGTLVTVSS VL: DIQMTQSPSSVSASVGDRVTITCRASQDISSWLAWYQQKAGKAPKLLIYAASSLQSGVPSRFSGSGSGTDFTLTISSLQPEDFATYYCQRTNSFPRTFGQGTKVEIK | 168 ng/mL | 56% |
| 3.625.1.7 (antibody, V domains shown) VH: QVQLVESGGGVVQPGRSLRLSCAASGFTFSSYGMHWVRQAPGKGLEWVAVIWYDRSNKYYADSVKGRFTISRDNSKNTLYLQMDSLRAEDTAVYYCAGGRSRGAFDYWGQGTLVTVSS VL: DIQMTQSPSSVSASVGDRVTITCRASQGISSWLAWYQQKPGKAPKLLIYAASSLQSGVPSRFSGSGSGTDFTLTISSLQPEDFATYYCQRTNSFPRTFGQGTKVEIK | 3820 ng/mL | -3% |
| 3.87.1.1 (antibody, V domains shown) VH: QVQLVESGGGVVQPGRSLRLSCAASGFTFSSYGMHWVRQAPGKGLEWVAVIWYDRSNKYYADSVKGRFTISRDNSKNTLYLQMNSLRAEDTAVYYCAGGRSRGAFDYWGQGTLVTVSS VL: DIQMTQSPSSVSASVGDRVTITCRASQGISSWLAWYQQKPGKAPKLLIFAASSLQSGVPSRFSGSGSGTDFTLTISSLQPEDFATYYCQRTNSFPRTFGQGTKVEIK | 6240 ng/mL | 69% |
| 2.1576.1.2 (antibody, V domains shown) VH: EVQLVESGGGLVQPGGSLRLSCAASGFTFSSYWMSWVRQAPGKGLEWVANIKQDGSEKYYVDSVKGRFTISRDNAKNSLYLQMNSLRAEDTAVYYCARWGVFGSGSYYIPFDYWGQGTLVTVSS VL: DIQMTQSPSSLSASVGDRVTITCRASQGIRNYLAWFQQKPGKAPKSLIYAASSLQSGVPSTFSGSGSGTHFTLTISSLQPEDFASYFCQQYEIYPLTFGGGTKVEIK | > 10000 ng/mL | 65% |

The remaining lines, values ahead:

| Proliferation Assay: IC50 ng/ml (1-6-06) | pTyr Assay: % Inhibition @ 2 µg/ml | Binder |
| --- | --- | --- |
| 2.2 ng/mL | 31% | 5.9.3 (antibody, V domains shown) VH: not shown VL: DIQMTQSPSSLSASVGDRVSITCRASQGIRNDLGWYQQKPGKAPTRLIYAASSLQSGVPSRFSGSGSGTEFTLTISSLQPEDFASYYCLQHNSFPWTFGQGTKVEIK |
| 1020 ng/mL | 58% | 3.805.1.3 (antibody, V domains shown) VH: QVQLVESGGGVVQPGRSLRLSCAASGFTFSSYGMHWVRQAPGKGLEWVAVIWYDRSNKYYADSVKGRFTISRDNSKNTLYLQMNSLRAEDTAVYYCAGGRSRGAFDYWGQGTLVTVSS VL: DIQMTQSPSSVSASVGDRVTITCRASQGISSWLAWYQQKPGKAPNLLIYAASSLQSGVPSRFSGSGSGTDFTLTISSLQPEDFATYYCQRTNNFPRTFGQGTKVEIK |
| 4600 ng/mL | 92% | 3.818.4 (antibody, V domains shown) VH: EVQLVESGGGLVQPGGSLRLSCAASGFTFSSYSMNWVRQAPGKGLEWVSYISGSSTTMYYADSVKGRFTISRDNAKNSLYLQMNSLRDEDTAVYYCARLRHFDWSYAFDIWGQGTMVTVSS VL: DIQMTQSPSSVSTSVGDRVTITCRASQGISSWLAWYQQRPGKAPKLLIYAASSLQSGVPSRFSGSGSGTDFTLTISSLQPEDFATYFCQQATSFPFTFGPGTKVGIK |
| > 10000 ng/mL | 74% | 4.16.2 (antibody, V domains shown) VH: not shown VL: DIQMTQSPSSLSASVGDRVTITCRASQVIANYLAWYQQKPGKVPKLLIYAASTLQSGVPSRFSGSGSGTDFTLTISSLQPEDVATYYCHTYKSAPWTFGQGTKVEIK |
| > 10000 ng/mL | 77% | 5.1.1.1 (antibody, V domains shown) VH: QVQLVQSGAEVKKPGASVKVSCKASGYTFTSYDINWVRQATGQGLEWMGWMNPNSGNTGYAQQFQGRVTMTRNTSITTAYMELSSLRSEDTAVYYCAREEYSSSLFDSWGQGTLVTVSS VL: DIQMTQSPSSLSASVGDRVTITCRASQGIRNNLGWFQQKPGKAPKRLIYAASSLQSGVPSRFSGSGSGTKFTLTISSLQPEDFATYFCLQHNRYPLTFGGGTKVEIK |
